Source: article PMC5570165

Test system: p19 N15K,G16R
Experiment: BLI / MSD-SET
Conditions: 2'-OMe at select positions, BLI: citrate-phosphate buffer, 100 mM NaCl, 0.1% BSA, 0.002% Tween-20, 37 C (pH of the siRNA assay not stated), MSD-SET: PBS, 100 pM siRNA, 24 h …

Sequence: AACGCUGGGCGUUAAUCAATT / UUGAUUAACGCCCAGCGUUTT [Seq 7 siRNA]
- binding signal (fold higher affinity than p19 (up to)): 160
